{"source": "patent CN118307667A", "target": "RSV A/B株的融合蛋白的融合前和融合后构象", "assay": "ELISA, F protein coated 50 ng/well, anti-human IgG-Fc-HRP", "data": [{"binder": "RSFP2B6抗体 (antibody, V domains shown) VH: QVQLVQSGGALAQPGRSLRLSCTTSGFTFGDYAVNWVRQAPGKGLEWVGIVRTEPYGGTTEYSASVKGRFIISRDDSKGIAYLQMNSLKTEDTGVYYCSQPILNVDVWGQGTTVTVSS VL: NFMLTQPHSVSESPGKTVTISCTRSSGSFGSDYVQWYQQRPGSAPNTVIYENNQRPSGVPDRFSGSIDSSSNSASLTISGLKTEDEADYYCQSYDDNTPWVFGGGTELTVL", "values": [{"measurement": "EC50", "value": "0.292 to 0.603", "unit": "µg/mL"}]}]}
